T1: HBb (Bd0055) (Bdellovibrio bacteriovorus HD100, UniProt Q6MRM1 1-64)
T1 sequence: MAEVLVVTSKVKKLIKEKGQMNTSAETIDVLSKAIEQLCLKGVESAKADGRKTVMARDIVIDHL


How the values were obtained:
HBb (Bd0055) [1] = target: T1, HBb (Bd0055); test: MST; unit printed as M (symbol lost); text says lower micromolar; 10 nM DNA; MST: 20 mM Tris pH 8.0, 150 mM NaCl, 2.5 mM 2-mercaptoethanol, 37 C 10 min (HMfB RT 5 min); EMSA 80 bp: 25 mM Tris pH 8.0, 50 mM NaCl, 50 mM KCl, 37 C; ladder EMSA/MNase/circularization: 50 mM Tris pH 7.0, 75 mM KCl, RT; conditions: protein: recombinant; tags: N-terminal His6 (vector pETHis1a); chain copies: 2; label: 5' Cy5 on strand 1; blunt
HMfB = HMfB (Methanothermus fervidus, UniProt P19267 1-69); test: MST; unit printed as M (symbol lost); 20 nM in HMfB titration; MST: 20 mM Tris pH 8.0, 150 mM NaCl, 2.5 mM 2-mercaptoethanol, 37 C 10 min (HMfB RT 5 min); EMSA 80 bp: 25 mM Tris pH 8.0, 50 mM NaCl, 50 mM KCl, 37 C; ladder EMSA/MNase/circularization: 50 mM Tris pH 7.0, 75 mM KCl, RT; conditions: protein: recombinant; tags: N-terminal His6 (vector pET28a); chain copies: 4; label: 5' Cy5 on strand 1; blunt
[2] = target: the molecule itself; test: SEC-MALS; purified HBb in solution; 1260 Infinity II HPLC with miniDAWN TREOS and Optilab T-rEX detectors
HBb (Bd0055) [3] = target: T1, HBb (Bd0055); test: MST; unit printed as M (symbol lost); 10 nM DNA; MST: 20 mM Tris pH 8.0, 150 mM NaCl, 2.5 mM 2-mercaptoethanol, 37 C 10 min (HMfB RT 5 min); EMSA 80 bp: 25 mM Tris pH 8.0, 50 mM NaCl, 50 mM KCl, 37 C; ladder EMSA/MNase/circularization: 50 mM Tris pH 7.0, 75 mM KCl, RT; conditions: protein: recombinant; tags: N-terminal His6 (vector pETHis1a); chain copies: 2; label: 5' Cy5 on strand 1; blunt

Chain of HMfB (P19267 whole entry): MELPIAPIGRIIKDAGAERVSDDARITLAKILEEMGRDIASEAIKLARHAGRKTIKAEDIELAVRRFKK

| Binder | Kd (HBb (Bd0055) [1]) | Kd (HMfB) | stoichiometry N [2] | Kd (HBb (Bd0055) [3]) |
| --- | --- | --- | --- | --- |
| 80 bp DNA [Cy5] (dsDNA) DNA 1: CCGTACTGTCGTCTGCGGCCTTTGATTATCAATTAAAGCGTTCTACGGCGTTTTTGATCGCTCAACGTGCGGAGCTAGAT DNA 2: ATCTAGCTCCGCACGTTGAGCGATCAAAAACGCCGTAGAACGCTTTAATTGATAATCAAAGGCCGCAGACGACAGTACGG | 4.84 ± 0.97 µM | 0.83 ± 0.27 µM | – | – |
| bacterial histone HBb (Histone of B. bacteriovorus) (natural protein, Bdellovibrio bacteriovorus, theoretical molecular weight 7 kDa; Homodimer by SEC-MALS and in the crystals; also called Bd0055) MAEVLVVTSKVKKLIKEKGQMNTSAETIDVLSKAIEQLCLKGVESAKADGRKTVMARDIVIDHL | – | – | 2 | – |
| 80 bp-GC50 [Cy5] (dsDNA) DNA 1: TTAAAGCCCGTTAAAGCCCGTTAAAGCCCGTTAAAGCCCGTTAAAGCCCGTTAAAGCCCGTTAAAGCCCGTTAAAGCCCG DNA 2: CGGGCTTTAACGGGCTTTAACGGGCTTTAACGGGCTTTAACGGGCTTTAACGGGCTTTAACGGGCTTTAACGGGCTTTAA | – | 3.92 ± 1.16 µM | – | 11.1 ± 1.07 µM |
